Measured values reported in PMC7713262, “Synthesis of high-titer alka(e)nes in Yarrowia lipolytica is enabled by a discovered mechanism” (Nature Communications, 2020).

Experiments:
[1] = substrate: CCCCCCCCCCCCCCCCCC(=O)O; experiment: heptadecane formation by GC-FID; Eadie-Hofstee plot; format: biochemical, Chlorella variabilis; conditions: blue light, 20 h, 25 °C, 50 mM Tris-HCl pH 8.5, 30 vol% DMSO, lithium salt, kcat unit doubtful (Vmax 2.83 μM/h)
[2] = substrate: CCCCCCCCCCCCCCCCCC(=O)SCCNC(=O)CCNC(=O)[C@H](O)C(C)(C)COP(=O)(O)OP(=O)(O)OC[C@H]1O[C@@H](n2cnc3c(N)ncnc32)[C@H](O)[C@@H]1OP(=O)(O)O; experiment: as above; format: biochemical, Chlorella variabilis; conditions: blue light, 20 h, 25 °C, 50 mM Tris-HCl pH 8.5, 30 vol% DMSO, lithium salt, kcat unit doubtful (Vmax 3.22 μM/h)

B1: CvFAP (fatty acid photodecarboxylase) (Chlorella variabilis) (protein)
chain: SAVEDIRKVLSDSSSPVAGQKYDYILVGGGTAACVLANRLSADGSKRVLVLEAGPDNTSRDVKIPAAITRLFRSPLDWNLFSELQEQLAERQIYMARGRLLGGSSATNATLYHRGAAGDYDAWGVEGWSSEDVLSWFVQAETNADFGPGAYHGSGGPMRVENPRYTNKQLHTAFFKAAEEVGLTPNSDFNDWSHDHAGYGTFQVMQDKGTRADMYRQYLKPVLGRRNLQVLTGAAVTKVNIDQAAGKAQALGVEFSTDGPTGERLSAELAPGGEVIMCAGAVHTPFLLKHSGVGPSAELKEFGIPVVSNLAGVGQNLQDQPACLTAAPVKEKYDGIAISDHIYNEKGQIRKRAIASYLLGGRGGLTSTGCDRGAFVRTAGQALPDLQVRFVPGMALDPDGVSTYVRFAKFQSQGLKWPSGITMQLIACRPQSTGSVGLKSADPFAPPKLSPGYLTDKDGADLATLRKGIHWARDVARSSALSEYLDGELFPGSGVVSDDQIDEYIRRSIHSSNAITGTCKMGNAGDSSSVVDNQLRVHGVEGLRVVDASVVPKIPGGQTGAPVVMIAERAAALLTGKATIGASAAAPATVAA
notes: codon-optimised gene, C-terminal 6xHis tag (3'-terminus), pET28, E. coli BL21(DE3), Ni-NTA purified
Work on B1 yielded a Km [1] of 108.31 µM, a kcat [1] of 979.62 s⁻¹ and a Km [2] of 75.30 µM.
